Results published in patent publication US20240010735A1 (EISAI R AND D MANAGEMENT, published 2024).

Key:
Test in all cases: ELISA: Fc-His proteins (1 nM) captured on anti-6-His antibody, antibody B 10 µg/mL with human IgG 100 µg/mL, HRP anti-human kappa light chain antibody, OD450 as % of mouse EphA4-Fc-His
[1] = molecular target: T1, mouse EphA10 extracellular region-Fc-His protein (mouse; human, UniProt Q8BYG9 23-565)
T1 construct: extracellular domain; not shown: Fc region of human IgG1; histidine tag
T1 sequence (looked up): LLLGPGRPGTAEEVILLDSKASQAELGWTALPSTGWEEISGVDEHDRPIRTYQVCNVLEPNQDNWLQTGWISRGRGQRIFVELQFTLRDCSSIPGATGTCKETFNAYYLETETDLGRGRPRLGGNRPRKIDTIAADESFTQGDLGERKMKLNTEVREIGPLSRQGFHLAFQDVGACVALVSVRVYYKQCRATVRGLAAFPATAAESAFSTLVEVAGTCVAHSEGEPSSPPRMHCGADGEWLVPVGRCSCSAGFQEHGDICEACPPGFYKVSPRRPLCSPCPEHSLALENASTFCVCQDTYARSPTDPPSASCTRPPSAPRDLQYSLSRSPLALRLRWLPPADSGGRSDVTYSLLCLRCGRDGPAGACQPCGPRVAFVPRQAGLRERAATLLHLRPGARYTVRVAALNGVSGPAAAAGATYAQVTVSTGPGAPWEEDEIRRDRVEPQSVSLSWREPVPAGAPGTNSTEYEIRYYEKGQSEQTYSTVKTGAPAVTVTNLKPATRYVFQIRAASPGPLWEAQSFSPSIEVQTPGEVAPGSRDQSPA

[2] = molecular target: T2, mouse EphA8 extracellular region-Fc-His protein (mouse; human, UniProt O09127 27-541)
T2 construct: extracellular domain; not shown: Fc region of human IgG1; histidine tag
T2 sequence (looked up): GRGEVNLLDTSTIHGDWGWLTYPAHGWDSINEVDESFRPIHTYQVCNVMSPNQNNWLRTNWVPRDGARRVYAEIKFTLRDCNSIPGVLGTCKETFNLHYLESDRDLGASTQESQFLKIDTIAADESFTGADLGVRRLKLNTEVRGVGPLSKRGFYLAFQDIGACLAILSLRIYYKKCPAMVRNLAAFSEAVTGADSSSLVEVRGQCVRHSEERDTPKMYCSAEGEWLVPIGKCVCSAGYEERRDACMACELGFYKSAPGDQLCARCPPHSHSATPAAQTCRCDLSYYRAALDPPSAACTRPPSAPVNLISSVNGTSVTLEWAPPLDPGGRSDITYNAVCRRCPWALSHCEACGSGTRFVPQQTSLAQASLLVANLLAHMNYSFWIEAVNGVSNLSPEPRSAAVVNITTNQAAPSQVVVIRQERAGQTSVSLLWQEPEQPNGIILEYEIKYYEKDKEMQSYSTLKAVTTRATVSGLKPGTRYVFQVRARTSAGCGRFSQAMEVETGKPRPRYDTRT

[3] = molecular target: T3, mouse EphA2 extracellular region-Fc-His protein (mouse, UniProt Q03145 26-538)
T3 construct: extracellular domain; Cloned into a pcDNA 3.1 vector separately from the other mouse Eph receptors; not shown: Fc; histidine tag

[4] = molecular target: T4, mouse EphB4 extracellular region-Fc-His protein (mouse; human, UniProt P54761 16-539)
T4 construct: extracellular domain; not shown: Fc region of human IgG1; histidine tag
T4 sequence (looked up): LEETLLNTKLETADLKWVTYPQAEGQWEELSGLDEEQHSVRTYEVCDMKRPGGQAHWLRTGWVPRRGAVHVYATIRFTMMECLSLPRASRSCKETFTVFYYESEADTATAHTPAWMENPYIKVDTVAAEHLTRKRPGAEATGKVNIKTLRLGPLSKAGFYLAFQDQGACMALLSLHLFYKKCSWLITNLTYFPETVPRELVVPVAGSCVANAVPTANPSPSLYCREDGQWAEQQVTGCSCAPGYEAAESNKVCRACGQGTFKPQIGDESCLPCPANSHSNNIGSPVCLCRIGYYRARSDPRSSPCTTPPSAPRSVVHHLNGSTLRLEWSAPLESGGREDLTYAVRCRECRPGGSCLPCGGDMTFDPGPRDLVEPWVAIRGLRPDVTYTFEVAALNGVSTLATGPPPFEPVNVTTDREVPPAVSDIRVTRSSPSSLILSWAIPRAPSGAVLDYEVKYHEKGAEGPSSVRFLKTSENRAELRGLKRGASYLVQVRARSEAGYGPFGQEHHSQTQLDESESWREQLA

Measured: binding result

T3 sequence (Q03145 26-538): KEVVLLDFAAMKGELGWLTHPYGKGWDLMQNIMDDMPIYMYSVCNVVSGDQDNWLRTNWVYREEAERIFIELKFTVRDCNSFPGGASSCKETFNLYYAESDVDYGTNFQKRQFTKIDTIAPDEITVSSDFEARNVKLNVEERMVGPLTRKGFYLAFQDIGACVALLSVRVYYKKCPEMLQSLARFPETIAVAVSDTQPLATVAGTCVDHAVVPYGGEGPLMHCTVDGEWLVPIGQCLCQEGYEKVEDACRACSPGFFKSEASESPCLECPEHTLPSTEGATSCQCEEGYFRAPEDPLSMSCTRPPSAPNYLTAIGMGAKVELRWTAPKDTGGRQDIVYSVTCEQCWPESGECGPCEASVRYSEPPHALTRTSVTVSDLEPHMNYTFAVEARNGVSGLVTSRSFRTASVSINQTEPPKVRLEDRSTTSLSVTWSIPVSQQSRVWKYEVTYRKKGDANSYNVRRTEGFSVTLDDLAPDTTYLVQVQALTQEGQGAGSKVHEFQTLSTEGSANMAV

B1: humanized anti-EphA4 monoclonal antibody (antibody B) (antibody, human IgG2, V domains shown)
VH: QVQLVESGGGVVQPGRSLRLSCAVSGFSLTRFGVHWVRQAPGKGLEWVAVIWRGGSTDYNAAFMSRLTISKDNSKNTVYLQMNSLRAEDTAVYYCAKESLFGVYYDYGYYSMDYWGQGTTVTVSS
VL: DIQMTQSPSSLSASVGDRVTITCRASQEISGYLSWLQQKPGKAPKRLIYAASTLDSGVPSRFSGSRSGTEYTLTISSLQPEDFATYYCLQYASYPLTFGGGTKVEIKR
notes: expressed in Expi293F cells; also called humanized antibody of antibody A; HK2-42 / L1-8
no binding (tested: 10 µg/mL): all assays above
